Measurements as given in patent publication US20110135636A1 (SYMPHOGEN A S, published 2011).

Experiments:
[1] = biological target: T1, EGFR-Fc (recombinant EGFR ECD-Fc chimera, R&D Systems 344-ER) (human, UniProt P00533 25-645); assay: SPR (BIAcore 2000); Fab over immobilized EGFR ECD-Fc; Scatchard analysis
T1 construct: extracellular domain; Bought; also called immobilized Human EGFR ECD; immobilized receptor; not shown: human IgG Fc

[2] = biological target: T2, full length human EGFR expressed on the cell surface (human, UniProt P00533 25-1210); assay: cell ELISA, Fab titrated on paraformaldehyde-fixed A431-NS cells; given as ED50
T2 construct: whole, on cells; also called EGFR on A431-NS cells; EGFR on HN5 cells
Experimental: (§1) Cell ELISA: The relative binding affinities defined as the molar concentration giving the half maximal OD (ED50) were determined by antibody titrations on A431-NS cells. Briefly, 10,000 A431-NS cells were grown in 96 well ELISA plates containing DMEM with added 0.5% FCS and 1% P/S at 37° C., 5% CO₂ overnight. […] Then 50 μl of a secondary Goat-anti-Human (Fab specific) HRP conjugate diluted 1:5000 in DMEM containing 1% BSA was added and incubated on ice for 30 min. Finally wells were washed four times with PBS and plates developed by adding 50 μl/well TMB Plus substrate and read at 620 nm every 5-15-30 min. After incubation with substrate the reaction was stopped by addition of 1 M H₂SO₄ and absorbance read at 450 nm. The functional affinity expressed as ED50 values were calculated by subtraction of the average background binding with secondary reagent only, followed by normalization of the binding curves by plotting % maximal binding relative to each antibody tested.

[3] = biological target: T2, full length human EGFR expressed on the …; assay: cell ELISA, Fab titrated on paraformaldehyde-fixed A431-NS cells, against SPR
Experimental: as §1

[4] = biological target: T2, full length human EGFR expressed on the …; assay: cell ELISA, Fab titrated on paraformaldehyde-fixed A431-NS cells
Experimental: as §1

[5] = biological target: T1, EGFR-Fc (recombinant EGFR ECD-Fc …); assay: SPR (BIAcore 2000); Fab over immobilized EGFR ECD-Fc
[6] = biological target: T3, recombinant human EGFR extracellular domain with 6xHis (human, UniProt P00533 25-645); assay: SPR (Biacore 3000) on captured 6xHis EGFR ECD
T3 construct: In-house produced; also called 6xHis EGFR ECD; soluble human EGFR ECD; not shown: 6xHis tag

[7] = biological target: T4, Cynomolgus EGFR extracellular domain (Cynomolgus monkey (Macaca fascicularis), UniProt P55245 25-645 (rhesus entry)); assay: ELISA on cynomolgus EGFR ECD (Example 10)
T4 construct: Cloned without signal peptide; also called Cynomolgus rEGFR ECD; Cynomolgus EGFR ECD
Experimental: To verify that tested Anti-EGFR antibodies bound equally well to both Human and Cynomolgus EGFR ECD and accordingly warranting toxicology studies in Cynomolgus monkeys, serial four fold dilutions of antibodies beginning from 1 μg/ml were tested by ELISA for binding to recombinant Human and Cynomolgus EGFR ECD proteins. […] ELISA wells were coated with 50 μl/well of full length EGFR at a concentration of 1 μg/ml in PBS overnight at 4° C. The next morning wells were washed twice with PBS-T and blocked for one hour with 100 μl PBS-T-1% BSA at room temperature, followed by wash twice in PBS-T. Next 50 μl of serially diluted Anti-EGFR antibodies and control antibodies were added to wells and incubated for one hour at room temperature. After antibody incubation wells were washed five times with PBS-T, followed by incubation with 50 μl/well Streptavidin-HRP secondary reagent diluted 1:3000 in blocking buffer and incubation at room temperature for 30 min. Finally wells were washed five times with PBS-T and plates were developed by adding 50 μL/well TMB substrate and incubated at room temperature. After incubation the reaction was stopped by addition of 1 M H₂SO₄; 100 μl/well and plates were read at OD 450 nm.

[8] = biological target: T5, wild type full length EGFR purified from A431 cells (human, UniProt P00533 25-1210); assay: indirect ELISA, Fab on coated purified full length EGFR
T5 construct: mature; Bought; coated on ELISA wells; also called full length EGFR receptor antigen; Sigma E3641

[9] = biological target: T1, EGFR-Fc (recombinant EGFR ECD-Fc …); assay: SPR (BIAcore 2000); Fab over immobilized EGFR ECD-Fc against IgG with soluble EGFR ECD
[10] = biological target: T2, full length human EGFR expressed on the …; assay: cell ELISA, Fab on A431-NS cells
Experimental: as §1

Binder	Kd [1] [nM]	EC50 [2] [nM]	fold lower monovalent functional affinity value on cells than tested with BIAcore [3] [fold]	Log ED50 [4]	t1/2 [5] [min]	binding result [6]	binding result [7]	EC50 (read off the curve) [8] [nM]	fold higher affinity against immobilized antigen than against soluble receptor [9] [fold]	EC50 (read off the curve) [10] [nM]	Kd [5] [nM]	koff [5] [s⁻¹]	kon [5] [M⁻¹ s⁻¹]
antibody 1229 (antibody, human IgG1, kappa, V domains shown, Chimeric IgG1 kappa) VH: QVQLKESGPGLVAPSQSLSITCSVSGFSLTIYGVHWVRQPPGKGLEWLGVMWAGGNTDYNSALMSRLNISKDNSKSQVFLKVNSLQTDDTAMYYCTRDPDGYYVGWFFDVWGAGTTVTVSS VL: DIVMTQSHKFMSTSVGDRVSITCKASQDVTNAVAWYQQKPGQSPKLLIYWASIRHTGVPDRFTGSRSGTDYTLTINSVQAEDLALYYCQQHYNTPLTFGAGTKLEIKR						no binding (tested: 40 ug/ml)	no binding						
Fab 1024 (Fab, V domains shown, not shown: small tags and cut ends) VH: QVQLQQPGAELVEPGGSVKLSCKASGYTFTSHWMHWVKQRPGQGLEWIGEINPSSGRNNYNEKFKSKATLTVDKSSSTAYMQFSSLTSEDSAVYYCVRYYGYDEAMDYWGQGTSVTVS VL: DIVMTQAAFSNPVTLGTSASISCRSSKSLLHSNGITYLYWYLQKPGQSPQLLIYQMSNLASGVPDRFSSSGSGTDFTLRISRVEAEDVGVYYCAQNLELPYTFGGGTKLEIKR		2		0.3	2.3					~2	25.6	0.0049	190000

More lines, in order of falling EC50 [2], values ahead:

Kd [1] [nM]	EC50 [2] [nM]	fold lower monovalent functional affinity value on cells than tested with BIAcore [3] [fold]	Log ED50 [4]	t1/2 [5] [min]	binding result [6]	binding result [7]	EC50 (read off the curve) [8] [nM]	fold higher affinity against immobilized antigen than against soluble receptor [9] [fold]	EC50 (read off the curve) [10] [nM]	Kd [5] [nM]	koff [5] [s⁻¹]	kon [5] [M⁻¹ s⁻¹]	Binder
150	9.9	≥ 15	1	0.2									Fab 992 (Fab, V domains shown, not shown: small tags and cut ends) VH: EVQLQQPGSELVRPGASVKLSCKASGYTFTSYWMHWVKQRPGQGLEWIGNIYPGSRSTNYDEKFKSKATLTVDTSSSTAYMQLSSLTSEDSAVYYCTRNGDYYVSSGDAMDYWGQGTSVTVS VL: DIQMTQTTSSLSASLGDRVTISCRTSQDIGNYLNWYQQKPDGTVKLLIYYTSRLHSGVPSRFSGSGSGTDFSLTINNVEQEDVATYFCQHYNTVPPTFGGGTKLEIKR
	1.8		0.27	57.5			~4	10	~1	2.3	0.0002	87000	Fab 1030 (Fab, V domains shown, not shown: small tags and cut ends) VH: EVQLVESGGGLVKPGGSLKLSCAASGFTFSSYALSWVRQTPERRLEWVASISGVGSTYFPDSVKGRFTMSRDNARNILYLQMSSLRSEDTAMYYCARGSDGYFYAMDYWGQGTSVTVS VL: DIVLTQSPASLAVSLGQRATISCRASKSVSTSGYSFMHWYQLKPGQPPKLLIYLASNLESGVPARFSGSGSGTDFTLNIHPVEEEDAATYYCQHSREFPLTFGGGTKLEIKR
